IC50 data for two molecules are collected here from patent publication US20220348679A1 (MYTHIC THERAPEUTICS, published 2022).

In the assay the target is T1, LRRC15 on U-87 MG (LRRC15+) cells (UniProt Q8TF66 22-581, limits assumed).
T1 construct: whole, on cells; also called cell surface LRRC15
T1 sequence (looked up): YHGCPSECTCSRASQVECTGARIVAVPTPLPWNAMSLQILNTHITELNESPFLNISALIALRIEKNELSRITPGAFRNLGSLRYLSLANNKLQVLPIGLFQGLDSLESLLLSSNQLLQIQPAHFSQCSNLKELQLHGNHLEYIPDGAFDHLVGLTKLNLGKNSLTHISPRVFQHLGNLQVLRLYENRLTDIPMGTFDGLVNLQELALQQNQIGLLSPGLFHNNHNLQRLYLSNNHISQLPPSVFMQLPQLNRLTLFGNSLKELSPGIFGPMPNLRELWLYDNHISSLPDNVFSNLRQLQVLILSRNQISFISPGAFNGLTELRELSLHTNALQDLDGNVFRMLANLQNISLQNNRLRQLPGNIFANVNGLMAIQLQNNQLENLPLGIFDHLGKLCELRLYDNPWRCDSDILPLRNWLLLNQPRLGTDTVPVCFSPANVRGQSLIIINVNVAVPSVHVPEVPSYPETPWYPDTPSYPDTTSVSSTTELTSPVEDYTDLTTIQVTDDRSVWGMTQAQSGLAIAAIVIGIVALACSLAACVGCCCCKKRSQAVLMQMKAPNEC
Description: flow cytometry on U-87 MG (LRRC15+) cells; the text of Example 22 calls the fitted value a dissociation constant KD. Here is the method: Binding affinity of selected LRRC15 pH engineered antibody variants from Example 9 were measured on U-87 MG (LRRC15+) cells. 100,000 U-87 MG cells (ATCC HTB-14) were seeded per well in a 96 well deep well plate. Samrotamab and a pH engineered antibody variant were serially diluted at a 1:3 dilution in ice cold FC buffer (phosphate buffered saline (PBS), pH 7.4+2 mM ethylenediaminetetraacetic acid (EDTA)+2% (v/v) HI FBS). The plates were spun at 2,000 RPM for 2 minutes, the supernatant was removed, and 100 μL of diluted antibody was added to each well with final concentration ranging from 60 nM to 1 pM and incubated for 2 hours at 4° C. Post incubation, the cells were spun at 2000 rpm for 2 min and supernatant was discarded. Cells were washed twice with 500 μL of ice-cold FC buffer and resuspended with 100 μL of FC buffer. The cells were then transferred from the deep well plate to 96 well round bottom plate, spun at 2000 rpm for 2 min and incubated with 100 μL of 10 μg/mL Alexa Fluor 488 conjugated goat anti-human IgG secondary antibody (ThermoFisher Scientific, A11013) for 30 min. Post incubation, cells were washed with FC buffer and resuspended in 100 μL of FC buffer to read on a BD Accuri C6 flow cytometer. Binding affinity was measured as a dissociation constant KD by GraphPad Prism assuming Michaelis-Menten binding kinetics.
On the technique in general: In flow cytometry, cells or beads pass a laser one at a time.

B1: samrotamab (antibody, V domains shown)
VH: EVQLVQSGAEVKKPGASVKVSCKASGYKFSSYWIEWVKQAPGQGLEWIGEILPGSDTTNYNEKFKDRATFTSDTSINTAYMELSRLRSDDTAVYYCARDRGNYRAWFGYWGQGTLVTVSS
VL: DIQMTQSPSSLSASVGDRVTITCRASQDISNYLNWYQQKPGGAVKFLIYYTSRLHSGVPSRFSGSGSGTDYTLTISSLQPEDFATYFCQQGEALPWTFGGGTKVEIK
notes: IgG; also called MYT0963
On to B1, for which the IC50 (as a rule, the concentration that gives 50% inhibition) stood at 228 pM.

B2: MYT0971 (antibody, V domains shown)
VH: EVQLVQSGAEVKKPGASVKVSCKASGYKFSSYHIEWVKQAPGQGLEWIGEILPGSDTTNYNEKFKDRATFTSDTSINTAYMELSRLRSDDTAVYYCARDRGNYRAWFGYWGQGTLVTVSS
VL: DIQMTQSPSSLSASVGDRVTITCRASQDISNYLNWYQQKPGGAVKFLIYYTSRLHSGVPSRFSGSGSGTDYTLTISSLQPEDFATYFCQQGEALPWTFGGGTKVEIK
notes: IgG
B2 gave an IC50 of 484 pM.
